{"source": "patent US20110039779A1", "about": "“IGF-1R BINDING PROTEINS AND ANTAGONISTS” (priority 2007, published 2011)", "key": {"[1]": {"molecular_target": "IGF-1R on SW480 cells, P08069", "sequence (P08069 31-1367 limits assumed)": "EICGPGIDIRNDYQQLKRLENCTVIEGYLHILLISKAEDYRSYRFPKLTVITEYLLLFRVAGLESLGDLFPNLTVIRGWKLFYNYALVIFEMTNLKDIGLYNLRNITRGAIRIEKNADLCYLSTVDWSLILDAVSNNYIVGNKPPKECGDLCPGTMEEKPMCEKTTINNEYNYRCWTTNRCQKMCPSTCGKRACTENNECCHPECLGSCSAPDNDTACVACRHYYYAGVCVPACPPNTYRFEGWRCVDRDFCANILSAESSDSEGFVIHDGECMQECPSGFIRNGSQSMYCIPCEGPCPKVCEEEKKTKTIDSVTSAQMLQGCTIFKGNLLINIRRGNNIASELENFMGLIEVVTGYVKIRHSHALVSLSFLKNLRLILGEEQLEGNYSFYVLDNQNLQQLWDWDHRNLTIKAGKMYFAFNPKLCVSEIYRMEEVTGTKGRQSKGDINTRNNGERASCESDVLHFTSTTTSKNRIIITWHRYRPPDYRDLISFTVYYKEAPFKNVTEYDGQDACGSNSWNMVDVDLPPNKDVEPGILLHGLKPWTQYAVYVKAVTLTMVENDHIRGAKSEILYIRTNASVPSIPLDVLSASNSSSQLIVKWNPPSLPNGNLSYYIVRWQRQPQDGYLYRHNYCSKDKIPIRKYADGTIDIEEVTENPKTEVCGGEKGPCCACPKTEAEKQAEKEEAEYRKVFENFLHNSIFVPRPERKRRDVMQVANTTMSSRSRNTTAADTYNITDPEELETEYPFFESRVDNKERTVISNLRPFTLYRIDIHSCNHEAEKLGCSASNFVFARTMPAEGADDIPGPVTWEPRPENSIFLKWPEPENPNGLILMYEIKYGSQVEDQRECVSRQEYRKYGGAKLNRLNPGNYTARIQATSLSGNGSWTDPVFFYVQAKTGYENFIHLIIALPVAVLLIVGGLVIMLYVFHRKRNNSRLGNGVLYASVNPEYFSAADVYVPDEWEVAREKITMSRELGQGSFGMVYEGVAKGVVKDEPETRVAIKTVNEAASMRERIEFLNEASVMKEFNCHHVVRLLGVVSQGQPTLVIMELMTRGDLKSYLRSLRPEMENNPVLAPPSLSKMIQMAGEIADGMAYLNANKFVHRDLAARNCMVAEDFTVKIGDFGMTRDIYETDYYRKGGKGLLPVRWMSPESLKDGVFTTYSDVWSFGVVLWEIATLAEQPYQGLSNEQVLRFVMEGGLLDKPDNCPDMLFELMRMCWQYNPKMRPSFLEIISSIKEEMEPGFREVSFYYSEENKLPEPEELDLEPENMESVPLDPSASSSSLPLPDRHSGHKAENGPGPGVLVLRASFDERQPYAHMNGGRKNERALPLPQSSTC", "assay": "cell-based or functional assay"}, "[2]": {"molecular_target": "IGF-1R on MCF-7 cells (MCF-7S8, MCF7) (human), P08069", "sequence (P08069 31-1367)": "as the sequence (P08069 31-1367 limits assumed) above", "assay": "cell-based or functional assay"}}, "data": [{"binder": "SFYSCLESLVNGGAERSDGQWEGCR (modifications not checked)", "note": "[F113]", "values": [{"measurement": "IC50, IGF-1 (10 nM)-induced proliferation of SW480 cells, exp. 13262-015", "setting": "[1]", "value": "> 10", "unit": "µM"}, {"measurement": "IC50, IGF-1 (10 nM)-induced proliferation of SW480 cells, exp. 13262-016", "setting": "[1]", "value": "> 10", "unit": "µM"}, {"measurement": "Cell", "setting": "[2]", "value": 1000, "unit": "nM"}]}]}
